In experiment [1] the target is T1, trypsin inhibitor from glycine max soybean (Glycine max (soybean)).
T1 construct: also called Tryp
As to the kind of experiment: SPR (Biacore T200), trypsin inhibitor on CM5 chip, sample at 1 µM. The text has this:
To prepare the surface for the non-specific binding experiment, chicken egg white lysozyme and trypsin inhibitor from glycine max soybean were coupled manually to a series S CM5 chip with the surface density of 3000-5000 RU using the amine coupling kit according to the manufacture instructions.

A further experiment addresses T2, Human CD3 E+G HuFc-6xHis (human).
T2 construct: also called hu CD3εγ-Fc
Kind of experiment: SPR (ProteOn XPR36), HuCD3E_HuCD3G-Fc amine-coupled, bispecific as analyte, Example 4B. The method, then:
The binding affinity of purified DLL3/CD3 bispecific constructs for recombinant human DLL3-ECD and Fc-fusion protein of human CD3 εγ subunits was determined by Surface Plasmon Resonance (SPR), using a ProteOn XPR36 instrument (Bio-Rad).
For binding kinetic determination to CD3, HuCD3E_HuCD3G-Fc (dissolved in pH 4.5 acetate) was immobilized directly onto the sensor surface through amine coupling for 360 sec at a flowrate of 30 μl/min vertically. The baseline was stabilized by injecting PBS-T-EDTA for 60 sec at a flowrate of 30 μl/min horizontally. The analytes (all anti-DLL3/CD3 molecules) were injected horizontally over the captured antibody for 600 sec at a flowrate of 30 μl/min and a dissociation for 1800 sec.

The target in a further experiment is T3, EGF2+3.
T3 construct: also called Hu DLL3 EGF2+3 on HEK293 cells
T3 membrane-anchored DLL3 subdomain construct: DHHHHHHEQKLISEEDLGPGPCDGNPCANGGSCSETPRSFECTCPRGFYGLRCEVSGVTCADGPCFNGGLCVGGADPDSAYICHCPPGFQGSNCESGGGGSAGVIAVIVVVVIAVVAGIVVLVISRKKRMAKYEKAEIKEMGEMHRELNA
Kind of experiment: flow cytometry on HEK293 cells expressing the DLL3 subdomain construct, PE anti-human secondary, control: secondary antibody only. As for the experimental part: (§1) DLL3/CD3 binding proteins were produced by transient transfection of CHO-E cells with the pTT5 vectors carrying the chain-encoding genes, as described in Example 2. […] Bound molecules were detected with PE-conjugated anti-human secondary antibody (Sigma-Aldrich, #P8047). As negative control, cells were incubated with secondary antibody only.
(§2) The samples were measured by flow-cytometry. […] The sequences of the epitope domains are listed in Example 5, Table 3.

A further experiment concerns the target T4, EGF3+4.
T4 construct: also called Hu DLL3 EGF3+4 on HEK293 cells
T4 membrane-anchored DLL3 subdomain construct: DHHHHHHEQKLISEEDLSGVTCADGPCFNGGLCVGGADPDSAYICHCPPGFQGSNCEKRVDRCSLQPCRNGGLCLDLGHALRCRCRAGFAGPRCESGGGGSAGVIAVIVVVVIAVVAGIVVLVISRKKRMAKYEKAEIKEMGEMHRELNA
The description is as above. As for the experimental part:
as §1, §2

Another experiment has as its target T5, EGF4+5.
T5 construct: also called Hu DLL3 EGF4+5 on HEK293 cells
T5 membrane-anchored DLL3 subdomain construct: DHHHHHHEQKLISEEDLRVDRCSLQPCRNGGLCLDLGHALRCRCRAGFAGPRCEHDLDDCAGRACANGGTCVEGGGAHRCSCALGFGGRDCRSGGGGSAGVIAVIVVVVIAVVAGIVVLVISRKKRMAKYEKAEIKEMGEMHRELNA
The description is as above. As for the experimental part:
as §1, §2

Another experiment addresses T6, EGF5+6.
T6 construct: also called Hu DLL3 EGF5+6 on HEK293 cells
T6 membrane-anchored DLL3 subdomain construct: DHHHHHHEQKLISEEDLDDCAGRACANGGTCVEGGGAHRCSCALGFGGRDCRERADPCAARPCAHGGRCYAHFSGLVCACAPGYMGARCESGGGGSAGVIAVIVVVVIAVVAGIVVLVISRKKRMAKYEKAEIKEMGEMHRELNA
Described as above. The method, then: as §1, §2

The target of experiment [2] is T7, EGF6+MEMBRANE PROXIMAL PEPTIDE.
T7 construct: also called Hu DLL3 EGF6+membrane proximal peptide on HEK293 cells
T7 membrane-anchored DLL3 subdomain construct: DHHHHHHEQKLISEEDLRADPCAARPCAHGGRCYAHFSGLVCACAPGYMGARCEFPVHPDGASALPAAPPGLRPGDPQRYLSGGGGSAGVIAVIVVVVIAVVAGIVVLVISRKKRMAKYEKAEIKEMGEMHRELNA
The description is as above. The method, then: as §1, §2

T2 sequence (chain, as listed by the source limits assumed): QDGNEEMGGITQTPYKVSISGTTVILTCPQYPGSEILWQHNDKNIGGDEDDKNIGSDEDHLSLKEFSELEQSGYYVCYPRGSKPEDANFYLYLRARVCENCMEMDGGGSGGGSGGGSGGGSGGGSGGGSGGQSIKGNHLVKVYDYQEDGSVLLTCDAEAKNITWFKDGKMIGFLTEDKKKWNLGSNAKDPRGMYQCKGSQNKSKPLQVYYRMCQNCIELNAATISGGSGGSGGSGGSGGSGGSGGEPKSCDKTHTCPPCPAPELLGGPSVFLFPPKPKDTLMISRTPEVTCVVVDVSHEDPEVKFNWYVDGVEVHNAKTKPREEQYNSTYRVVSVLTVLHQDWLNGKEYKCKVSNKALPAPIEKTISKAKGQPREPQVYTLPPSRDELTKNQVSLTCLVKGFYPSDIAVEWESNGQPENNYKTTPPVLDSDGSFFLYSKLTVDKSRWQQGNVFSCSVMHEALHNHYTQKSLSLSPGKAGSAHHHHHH
T1 sequence (P01070 25-205): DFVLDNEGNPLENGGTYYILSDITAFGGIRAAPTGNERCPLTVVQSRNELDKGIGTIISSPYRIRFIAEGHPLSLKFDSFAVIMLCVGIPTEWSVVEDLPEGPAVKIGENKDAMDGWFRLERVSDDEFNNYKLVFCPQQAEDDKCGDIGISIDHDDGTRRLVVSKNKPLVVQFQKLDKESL

B1: DLL3#11/CD3#1 (bispecific antibody, human IgG1, kappa, lambda, L234A L235A)
chain 1: QIVLTQSPAIMSASPGEKVTITCSASSSVTYIHWFQQNPGTSPKLWIYRTSYLASGVPARFSGSGSGTSYSLTISRMEAEDAATYYCQQRSSYPRTFGGGTKLEIKRTVAAPSVFIFPPSDEQLKSGTASVVCLLNNFYPREAKVQWKVDNALQSGNSQESVTEQDSKDSTYSLSSTLTLSKADYEKHKVYACEVTHQGLSSPVTKSFNRGECGGGGSEGKSSGSGSESKSTEGKSSGSGSESKSTGGGGSQVQLQQPGAELVQPGSSVKMSCKASGYAFSDYWITWVKQRPGQGLEWIGDIYPGSGSTKSSEKFKNKATLTADTSSSKAYIQFSSLTPEDSAVYYCVSLYYYGSHYLDTWGQGTTLTVSSASTKGPSVFPLAPSSKSTSGGTAALGCLVKDYFPEPVTVSWNSGALTSGVHTFPAVLQSSGLYSLSSVVTVPSSSLGTQTYICNVNHKPSNTKVDKRVEPKSCDKTHTCPPCPAPEAAGGPSVFLFPPKPKDTLMISRTPEVTCVVVDVSHEDPEVKFNWYVDGVEVHNAKTKPREEQYNSTYRVVSVLTVLHQDWLNGKEYKCKVSNKALPAPIEKTISKAKGQPREPQVYTLPPSREEMTKNQVSLWCLVKGFYPSDIAVEWESNGQPENNYKTTPPVLDSDGSFFLYSKLTVDKSRWQQGNVFSCSVMHEALHNHYTQKSLSLSPG
chain 2: EAVVTQEPSLTVSPGGTVTLTCRSSTGAVTTSNYANWVQEKPGQLPRGLIGGTNKRAPWVPARFSGSLLGGKAALTLSGAQPEDEAEYFCALWYSNLWVFGGGTKLTVLGQPKAAPSVTLFPPSSEELQANKATLVCLISDFYPGAVKVAWKADGSPVNTGVETTTPSKQSNNKYAASSYLSLTPEQWKSHRSYSCQVTHEGSTVEKTVAPAECSGGGGSEGKSSGSGSESKSTEGKSSGSGSESKSTGGGGSEVQLVESGGGLVQPGGSLKLSCAASGFTFNTYAMNWVRQAPGKGLEWVARIRSKYNNYATYYADSVKDRFTISRDDSKNTAYLQMNNLKTEDTAVYYCVRHGNFGNSYVSWFAYWGQGTLVTVSAASTKGPSVFPLAPSSKSTSGGTAALGCLVKDYFPEPVTVSWNSGALTSGVHTFPAVLQSSGLYSLSSVVTVPSSSLGTQTYICNVNHKPSNTKVDKRVEPKSCDKTHTCPPCPAPEAAGGPSVFLFPPKPKDTLMISRTPEVTCVVVDVSHEDPEVKFNWYVDGVEVHNAKTKPREEQYNSTYRVVSVLTVLHQDWLNGKEYKCKVSNKALPAPIEKTISKAKGQPREPQVYTLPPSREEMTKNQVSLSCAVKGFYPSDIAVEWESNGQPENNYKTTPPVLDSDGSFFLVSKLTVDKSRWQQGNVFSCSVMHEALHNRFTQKSLSLSPG
notes: Heterodimer of one DLL3 chain and one CD3 chain (scFab-Fc, knob-in-hole)
With B1, the “Non-specific binding (RU)” value in experiment [1] stood at 13 RU. In the experiment with Human CD3 E+G HuFc-6xHis, this molecule registered a Kd of 2 nM. The binding result (with EGF2+3; in the experiment with EGF3+4; in the experiment with EGF4+5; in the experiment with EGF5+6; in experiment [2]) was “no binding (tested: 1.6 nM)” in each case.

B2: DLL3#7/CD3#1 (bispecific antibody, human IgG1, kappa, lambda, L234A L235A)
chain 1: EIVLTQSPDTLSLSPGERATLSCRASQSVNSNFLAWYQQKPGQTPRLLIFGTSSRATGIPDRFSGSGSGTDFTLTISRLEPEDFAVYYCQQYGSSPWTFGQGTKVEIRRTVAAPSVFIFPPSDEQLKSGTASVVCLLNNFYPREAKVQWKVDNALQSGNSQESVTEQDSKDSTYSLSSTLTLSKADYEKHKVYACEVTHQGLSSPVTKSFNRGECGGGGSEGKSSGSGSESKSTEGKSSGSGSESKSTGGGGSQVQLVESGGGVVQPGRSLRLSCAASGFTFSSYGMFWVRQAPGKGLEWVAVIWLDGDDEDYVDSVKGRFTISRDDSKNTLYLQMNSLRVDDTAIYYCARVLDYWGQGTLVTVSSASTKGPSVFPLAPSSKSTSGGTAALGCLVKDYFPEPVTVSWNSGALTSGVHTFPAVLQSSGLYSLSSVVTVPSSSLGTQTYICNVNHKPSNTKVDKRVEPKSCDKTHTCPPCPAPEAAGGPSVFLFPPKPKDTLMISRTPEVTCVVVDVSHEDPEVKFNWYVDGVEVHNAKTKPREEQYNSTYRVVSVLTVLHQDWLNGKEYKCKVSNKALPAPIEKTISKAKGQPREPQVYTLPPSREEMTKNQVSLWCLVKGFYPSDIAVEWESNGQPENNYKTTPPVLDSDGSFFLYSKLTVDKSRWQQGNVFSCSVMHEALHNHYTQKSLSLSPG
chain 2: EAVVTQEPSLTVSPGGTVTLTCRSSTGAVTTSNYANWVQEKPGQLPRGLIGGTNKRAPWVPARFSGSLLGGKAALTLSGAQPEDEAEYFCALWYSNLWVFGGGTKLTVLGQPKAAPSVTLFPPSSEELQANKATLVCLISDFYPGAVKVAWKADGSPVNTGVETTTPSKQSNNKYAASSYLSLTPEQWKSHRSYSCQVTHEGSTVEKTVAPAECSGGGGSEGKSSGSGSESKSTEGKSSGSGSESKSTGGGGSEVQLVESGGGLVQPGGSLKLSCAASGFTFNTYAMNWVRQAPGKGLEWVARIRSKYNNYATYYADSVKDRFTISRDDSKNTAYLQMNNLKTEDTAVYYCVRHGNFGNSYVSWFAYWGQGTLVTVSAASTKGPSVFPLAPSSKSTSGGTAALGCLVKDYFPEPVTVSWNSGALTSGVHTFPAVLQSSGLYSLSSVVTVPSSSLGTQTYICNVNHKPSNTKVDKRVEPKSCDKTHTCPPCPAPEAAGGPSVFLFPPKPKDTLMISRTPEVTCVVVDVSHEDPEVKFNWYVDGVEVHNAKTKPREEQYNSTYRVVSVLTVLHQDWLNGKEYKCKVSNKALPAPIEKTISKAKGQPREPQVYTLPPSREEMTKNQVSLSCAVKGFYPSDIAVEWESNGQPENNYKTTPPVLDSDGSFFLVSKLTVDKSRWQQGNVFSCSVMHEALHNRFTQKSLSLSPG
On to B2, for which the Kd in the experiment with Human CD3 E+G HuFc-6xHis came out at 1 nM.

B3: DLL3#1/CD3#1 (bispecific antibody, human IgG1, kappa, lambda, L234A L235A)
chain 1: EIVLTQSPGTLSLSPGERATLSCRASQSVSSNFLVWYQQKPGQAPRPLIYGASTRASGIPDRFSGSGSGADFTLTISRLEPEDFALYYCQQYGDSPYTFGQGTTLEIKRTVAAPSVFIFPPSDEQLKSGTASVVCLLNNFYPREAKVQWKVDNALQSGNSQESVTEQDSKDSTYSLSSTLTLSKADYEKHKVYACEVTHQGLSSPVTKSFNRGECGGGGSEGKSSGSGSESKSTEGKSSGSGSESKSTGGGGSQVQLVQSGAEVKKPGASVKVSCKASGNTFTNYYMHWVRQAPGPGLEWMGIIDPSVGSKSYAQKFLGRVTIARDTSTSTVFLDLYSLRSEDTAVYFCARAGKRFGESYFDYWGQGTLVTVSSASTKGPSVFPLAPSSKSTSGGTAALGCLVKDYFPEPVTVSWNSGALTSGVHTFPAVLQSSGLYSLSSVVTVPSSSLGTQTYICNVNHKPSNTKVDKRVEPKSCDKTHTCPPCPAPEAAGGPSVFLFPPKPKDTLMISRTPEVTCVVVDVSHEDPEVKFNWYVDGVEVHNAKTKPREEQYNSTYRVVSVLTVLHQDWLNGKEYKCKVSNKALPAPIEKTISKAKGQPREPQVYTLPPSREEMTKNQVSLWCLVKGFYPSDIAVEWESNGQPENNYKTTPPVLDSDGSFFLYSKLTVDKSRWQQGNVFSCSVMHEALHNHYTQKSLSLSPG
chain 2: EAVVTQEPSLTVSPGGTVTLTCRSSTGAVTTSNYANWVQEKPGQLPRGLIGGTNKRAPWVPARFSGSLLGGKAALTLSGAQPEDEAEYFCALWYSNLWVFGGGTKLTVLGQPKAAPSVTLFPPSSEELQANKATLVCLISDFYPGAVKVAWKADGSPVNTGVETTTPSKQSNNKYAASSYLSLTPEQWKSHRSYSCQVTHEGSTVEKTVAPAECSGGGGSEGKSSGSGSESKSTEGKSSGSGSESKSTGGGGSEVQLVESGGGLVQPGGSLKLSCAASGFTFNTYAMNWVRQAPGKGLEWVARIRSKYNNYATYYADSVKDRFTISRDDSKNTAYLQMNNLKTEDTAVYYCVRHGNFGNSYVSWFAYWGQGTLVTVSAASTKGPSVFPLAPSSKSTSGGTAALGCLVKDYFPEPVTVSWNSGALTSGVHTFPAVLQSSGLYSLSSVVTVPSSSLGTQTYICNVNHKPSNTKVDKRVEPKSCDKTHTCPPCPAPEAAGGPSVFLFPPKPKDTLMISRTPEVTCVVVDVSHEDPEVKFNWYVDGVEVHNAKTKPREEQYNSTYRVVSVLTVLHQDWLNGKEYKCKVSNKALPAPIEKTISKAKGQPREPQVYTLPPSREEMTKNQVSLSCAVKGFYPSDIAVEWESNGQPENNYKTTPPVLDSDGSFFLVSKLTVDKSRWQQGNVFSCSVMHEALHNRFTQKSLSLSPG
B3: binding in the experiment with Human CD3 E+G HuFc-6xHis was characterised by a dissociation constant (Kd) of 2 nM. Compared with the last molecule, the Kd is about 2-fold higher.
